We go through one substance from patent US20250313641A1.

The target of this experiment is cynomolgus monkey IL-2 receptor (IL-2R) on cyno PBMC subsets (cynomolgus monkey) (UniProt Q38J85). Nature of the experiment: cell-based or functional assay.
Chain of cynomolgus monkey IL-2 receptor (IL-2R) on cyno PBMC subsets (cynomolgus monkey) (Q38J85 27-551, chain 1 of 2): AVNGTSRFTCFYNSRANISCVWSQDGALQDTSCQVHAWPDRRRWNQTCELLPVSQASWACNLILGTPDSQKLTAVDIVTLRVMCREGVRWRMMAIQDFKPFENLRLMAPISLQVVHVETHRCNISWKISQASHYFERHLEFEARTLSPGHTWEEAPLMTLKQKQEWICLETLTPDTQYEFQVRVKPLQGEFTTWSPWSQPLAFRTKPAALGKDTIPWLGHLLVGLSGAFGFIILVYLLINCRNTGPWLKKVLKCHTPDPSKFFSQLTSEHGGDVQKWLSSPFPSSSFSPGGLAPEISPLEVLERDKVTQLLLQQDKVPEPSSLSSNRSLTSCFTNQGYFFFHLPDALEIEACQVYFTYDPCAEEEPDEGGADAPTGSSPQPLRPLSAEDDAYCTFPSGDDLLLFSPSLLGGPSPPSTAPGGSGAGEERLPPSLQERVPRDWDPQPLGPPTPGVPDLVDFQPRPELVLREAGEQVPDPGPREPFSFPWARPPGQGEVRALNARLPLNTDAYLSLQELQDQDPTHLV
Chain of cynomolgus monkey IL-2 receptor (IL-2R) on cyno PBMC subsets (cynomolgus monkey) (chain, as listed by the source, chain 2 of 2): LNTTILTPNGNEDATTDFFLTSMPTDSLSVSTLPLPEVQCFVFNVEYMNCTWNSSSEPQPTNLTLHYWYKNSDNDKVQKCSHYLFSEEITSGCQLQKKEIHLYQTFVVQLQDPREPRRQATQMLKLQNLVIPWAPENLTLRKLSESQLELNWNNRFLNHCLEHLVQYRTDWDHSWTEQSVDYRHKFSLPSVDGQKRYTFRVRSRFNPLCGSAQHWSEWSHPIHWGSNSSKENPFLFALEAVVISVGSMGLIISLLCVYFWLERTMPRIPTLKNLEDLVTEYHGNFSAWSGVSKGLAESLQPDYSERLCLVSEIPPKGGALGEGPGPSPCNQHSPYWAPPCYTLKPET

In the case of “Recombinant human IL-2 (from UniProt P60568 21-153) (ligand)”, the Ki67 (Cyno) EC50 [nM], CD4^+ T cells turned out to be 0.01 nM; the Ki67 (Cyno) EC50 [nM], CD8^+ T cells was determined as 0.05 nM; the Ki67 (Cyno) EC50 [nM], T-regs worked out at 0.009 nM; the Ki67 (Cyno) Emax (%), CD4^+ T cells was found to be 90%. Besides, the Ki67 (Cyno) Emax (%), CD8^+ T cells is 88%; the Ki67 (Cyno) Emax (%), NK cells came out at 92%; the Ki67 (Cyno) Emax (%), T-regs came to 69%.
